B1: Lysosomal cobalamin transport escort protein LMBD1 (Homo sapiens), Q9NUN5 (parent)
chain: MATSGAASAELVIGWCIFGLLLLAILAFCWIYVRKYQSRRESEVVSTITAIFSLAIALITSALLPVDIFLVSYMKNQNGTFKDWANANVSRQIEDTVLYGYYTLYSVILFCVFFWIPFVYFYYEEKDDDDTSKCTQIKTALKYTLGFVVICALLLLVGAFVPLNVPNNKNSTEWEKVKSLFEELGSSHGLAALSFSISSLTLIGMLAAITYTAYGMSALPLNLIKGTRSAAYERLENTEDIEEVEQHIQTIKSKSKDGRPLPARDKRALKQFEERLRTLKKRERHLEFIENSWWTKFCGALRPLKIVWGIFFILVALLFVISLFLSNLDKALHSAGIDSGFIIFGANLSNPLNMLLPLLQTVFPLDYILITIIIMYFIFTSMAGIRNIGIWFFWIRLYKIRRGRTRPQALLFLCMILLLIVLHTSYMIYSLAPQYVMYGSQNYLIETNITSDNHKGNSTLSVPKRCDADAPEDQCTVTRTYLFLHKFWFFSAAYYFGNWAFLGVFLIGLIVSCCKGKKSVIEGVDEDSDISDDEPSVYSA
partner: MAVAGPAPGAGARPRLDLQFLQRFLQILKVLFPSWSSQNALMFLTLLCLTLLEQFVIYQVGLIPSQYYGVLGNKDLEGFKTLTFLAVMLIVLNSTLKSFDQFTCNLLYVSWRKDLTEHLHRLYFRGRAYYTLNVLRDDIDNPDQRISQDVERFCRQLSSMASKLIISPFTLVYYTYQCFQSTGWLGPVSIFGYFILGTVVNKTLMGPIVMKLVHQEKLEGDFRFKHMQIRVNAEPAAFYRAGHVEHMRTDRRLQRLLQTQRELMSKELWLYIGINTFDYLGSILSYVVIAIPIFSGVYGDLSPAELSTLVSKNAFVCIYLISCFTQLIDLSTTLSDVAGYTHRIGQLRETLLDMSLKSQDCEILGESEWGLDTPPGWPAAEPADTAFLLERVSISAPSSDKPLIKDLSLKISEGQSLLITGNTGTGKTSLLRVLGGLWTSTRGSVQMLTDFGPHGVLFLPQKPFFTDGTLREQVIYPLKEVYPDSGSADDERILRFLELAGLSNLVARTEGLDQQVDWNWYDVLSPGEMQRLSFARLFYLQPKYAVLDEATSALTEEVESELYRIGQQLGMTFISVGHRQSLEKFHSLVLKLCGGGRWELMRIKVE

Variants of: B1
Conditions: with abcd4_human ABCD4, O14678

Variant	effect of a mutation on the interaction
Y232A;E233A;R234A;L235A	with no effect
W294A;T295A;K296A;F297A	with no effect

From IntAct's records for PubMed 27456980
